We go through one substance from publication PMC8385042.

For the assay, the target named is TIR domain of Toll-like receptor 1 (TLR1-TIR), residues 625-786 of human TLR1 (human) (UniProt Q15399). In words: dynamic light scattering; 100 uM TLR1-TIR, 10 °C, cytoplasm-like buffer, threefold molar excess of ZnCl2 (1:3 protein to metal).

As usually defined, the stoichiometry N is a count of units in the complex or per binding partner. In the case of “TIR domain of Toll-like receptor 1 (TLR1-TIR), residues 625-786 of human TLR1 (from UniProt Q15399 625-786) (domain or fragment)”, the stoichiometry N is 5.
